This passage reports AUC results from patent US20220267464A1.

The test addresses human CEACAM5 (carcinoembryonic antigen, CEA) on cells (human) (UniProt P06731). Put plainly: flow cytometry, MKN45 cells. Set-up: unit not given beside the values.

human CEACAM5 (carcinoembryonic antigen, CEA) on cells (human), sequence (P06731 35-685 E398K limits assumed): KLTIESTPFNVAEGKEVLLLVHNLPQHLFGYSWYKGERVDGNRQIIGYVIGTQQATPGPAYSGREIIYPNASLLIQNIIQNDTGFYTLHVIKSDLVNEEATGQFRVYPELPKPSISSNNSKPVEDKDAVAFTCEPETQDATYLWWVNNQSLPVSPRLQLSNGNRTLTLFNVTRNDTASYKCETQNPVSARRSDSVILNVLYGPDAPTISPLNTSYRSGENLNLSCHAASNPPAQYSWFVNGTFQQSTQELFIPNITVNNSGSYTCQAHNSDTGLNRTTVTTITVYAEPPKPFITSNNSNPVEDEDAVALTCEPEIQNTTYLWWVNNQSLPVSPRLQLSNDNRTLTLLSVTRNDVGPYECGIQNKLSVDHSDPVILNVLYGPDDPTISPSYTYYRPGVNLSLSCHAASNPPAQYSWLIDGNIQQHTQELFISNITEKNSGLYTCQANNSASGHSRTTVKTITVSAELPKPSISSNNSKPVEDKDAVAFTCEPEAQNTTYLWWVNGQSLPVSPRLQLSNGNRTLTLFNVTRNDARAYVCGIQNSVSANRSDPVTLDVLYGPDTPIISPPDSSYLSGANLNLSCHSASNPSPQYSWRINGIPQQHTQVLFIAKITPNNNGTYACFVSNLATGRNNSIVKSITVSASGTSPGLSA

B1: P1AE3125 (antibody, IgG1, V domains shown)
VH: QVQLVQSGAEVKKPGASVKVSCKASGFNIKDSYMHWVRQAPGQGLEWMGWIDPENGDTEYAPKFQGRVTMTTDTSISTAYMELSRLRSDDTAVYYCNEGTPTGPYYFDYWGQGTLVTVSS
VL: DIQMTQSPSSLSASVGDRVTITCRASSSVSYMHWYQQKPGKAPKLLIYSTSNLASGVPSRFSGSGSGTDFTLTISSLQPEDFATYYCQQRSSYPLTFGGGTKLEIK
The molecule B1 showed an AUC of 3140.
